Publication doi:10.1101/2025.05.19.654868

Tests used:
[1] = target: S16L/R18S/N21K (LSK) crosslinked (disulfide-stabilised) HIV-1 CA hexamer (HIV-1); assay: crystal structure; crosslinked CA hexamer 12 mg/ml mixed with 1-5 mM IP6; sitting-drop vapour diffusion, 17 °C, MORPHEUS I screen
[2] = target: S16N/R18S/N21K (NSK) crosslinked (disulfide-stabilised) HIV-1 CA hexamer (HIV-1); assay: as above

Substance | stoichiometry N [1] | stoichiometry N [2]
S16L/R18S/N21K (LSK) crosslinked (disulfide-stabilised) HIV-1 CA hexamer (complex) | 6 | 
S16N/R18S/N21K (NSK) crosslinked (disulfide-stabilised) HIV-1 CA hexamer (complex) |  | 6
